Earlier results, collected in article PMC12135873.

Target: Cys106 (UniProt position 106, LIAAICAGPTA)

For “DJ-1 (PARK7, Parkinson disease protein 7) (Homo sapiens)”, the pKa is listed as 5.4.
